{
  "source": "IntAct's records for PubMed 22164301",
  "parents": {"B1": {"name": "Protein unc-93 homolog B1 (Homo sapiens), Q9H1C4 (parent)", "chain": "MEAEPPLYPMAGAAGPQGDEDLLGVPDGPEAPLDELVGAYPNYNEEEEERRYYRRKRLGVLKNVLAASAGGMLTYGVYLGLLQMQLILHYDETYREVKYGNMGLPDIDSKMLMGINVTPIAALLYTPVLIRFFGTKWMMFLAVGIYALFVSTNYWERYYTLVPSAVALGMAIVPLWASMGNYITRMAQKYHEYSHYKEQDGQGMKQRPPRGSHAPYLLVFQAIFYSFFHLSFACAQLPMIYFLNHYLYDLNHTLYNVQSCGTNSHGILSGFNKTVLRTLPRSGNLIVVESVLMAVAFLAMLLVLGLCGAAYRPTEEIDLRSVGWGNIFQLPFKHVRDYRLRHLVPFFIYSGFEVLFACTGIALGYGVCSVGLERLAYLLVAYSLGASAASLLGLLGLWLPRPVPLVAGAGVHLLLTFILFFWAPVPRVLQHSWILYVAAALWGVGSALNKTGLSTLLGILYEDKERQDFIFTIYHWWQAVAIFTVYLGSSLHMKAKLAVLLVTLVAAAVSYLRMEQKLRRGVAPRQPRIPRPQHKVRGYRYLEEDNSDESDAEGEHGDGAEEEAPPAGPRPGPEPAGLGRRPCPYEQAQGGDGPEEQ", "partner": "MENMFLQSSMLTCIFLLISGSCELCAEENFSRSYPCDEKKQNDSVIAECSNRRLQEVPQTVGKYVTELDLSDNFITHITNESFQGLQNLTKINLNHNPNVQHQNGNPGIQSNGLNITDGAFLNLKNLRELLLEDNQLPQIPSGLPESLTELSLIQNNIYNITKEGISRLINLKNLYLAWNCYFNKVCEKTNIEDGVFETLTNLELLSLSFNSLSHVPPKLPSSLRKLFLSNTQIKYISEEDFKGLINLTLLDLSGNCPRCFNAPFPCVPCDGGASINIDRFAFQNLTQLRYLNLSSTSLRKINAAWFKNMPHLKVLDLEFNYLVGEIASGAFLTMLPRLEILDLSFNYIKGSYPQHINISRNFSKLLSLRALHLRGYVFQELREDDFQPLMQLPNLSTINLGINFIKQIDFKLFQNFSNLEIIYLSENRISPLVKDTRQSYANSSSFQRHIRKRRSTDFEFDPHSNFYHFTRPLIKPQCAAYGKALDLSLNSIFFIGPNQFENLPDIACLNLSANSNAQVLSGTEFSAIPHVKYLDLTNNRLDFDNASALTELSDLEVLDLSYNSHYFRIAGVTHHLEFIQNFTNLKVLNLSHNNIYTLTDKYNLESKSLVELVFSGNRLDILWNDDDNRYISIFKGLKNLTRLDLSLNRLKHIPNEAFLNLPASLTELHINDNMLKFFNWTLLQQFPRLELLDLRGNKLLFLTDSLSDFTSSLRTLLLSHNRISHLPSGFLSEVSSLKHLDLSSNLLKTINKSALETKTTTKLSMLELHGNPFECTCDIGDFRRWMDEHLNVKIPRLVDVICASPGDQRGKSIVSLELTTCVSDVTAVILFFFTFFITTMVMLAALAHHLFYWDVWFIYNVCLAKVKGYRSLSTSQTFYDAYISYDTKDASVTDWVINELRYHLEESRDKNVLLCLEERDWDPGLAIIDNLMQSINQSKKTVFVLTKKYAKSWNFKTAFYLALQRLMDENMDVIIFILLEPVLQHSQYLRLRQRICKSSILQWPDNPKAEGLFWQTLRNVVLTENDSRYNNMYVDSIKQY"}, "B2": {"name": "Protein unc-93 homolog B1 (Homo sapiens), Q9H1C4 (parent)", "chain": "B1 chain"}},
  "data": [
    {"variants_of": "B1", "details": "with tlr8_human TLR8, Q9NR97", "values": [
      {"variant": "MEAEPPLYPMAGAAGPQGDEDLLGVPDGPEAPLDELVGAYPNYNEEEEERRYYRRKRLGVLKNVLAASAGGMLTYGVYLGLLQMQLILHYDETYREVKYGNMGLPDIDSKMLMGINVTPIAALLYTPVLIRFFGTKWMMFLAVGIYALFVSTNYWERYYTLVPSAVALGMAIVPLWASMGNYITRMAQKYHEYSHYKEQDGQGMKQRPPRGSHAPYLLVFQAIFYSFFHLSFACAQLPMIYFLNHYLYDLNHTLYNVQSCGTNSHGILSGFNKTVLRTLPRSGNLIVVESVLMAVAFLAMLLVLGLCGAAYRPTEEIDLRSVGWGNIFQLPFKHVRDYRLRHLVPFFIYSGFEVLFACTGIALGYGVCSVGLERLAYLLVAYSLGASAASLLGLLGLWLPRPVPLVAGAGVRLLLTFILFFWAPVPRVLQHSWILYVAAALWGVGSALNKTGLSTLLGILYEDKERQDFIFTIYHWWQAVAIFTVYLGSSLHMKAKLAVLLVTLVAAAVSYLRMEQKLRRGVAPRQPRIPRPQHKVRGYRYLEEDNSDESDAEGEHGDGAEEEAPPAGPRPGPEPAGLGRRPCPYEQAQGGDGPEEQ", "note": "[H412R]", "effect of a mutation on the interaction": "disrupting interaction strength"}
    ]},
    {"variants_of": "B2", "details": "with tlr3_human TLR3, O15455", "values": [
      {"variant": "MEAEPPLYPMAGAAGPQGDEDLLGVPDGPEAPLDELVGAYPNYNEEEEERRYYRRKRLGVLKNVLAASAGGMLTYGVYLGLLQMQLILHYDETYREVKYGNMGLPDIDSKMLMGINVTPIAALLYTPVLIRFFGTKWMMFLAVGIYALFVSTNYWERYYTLVPSAVALGMAIVPLWASMGNYITRMAQKYHEYSHYKEQDGQGMKQRPPRGSHAPYLLVFQAIFYSFFHLSFACAQLPMIYFLNHYLYDLNHTLYNVQSCGTNSHGILSGFNKTVLRTLPRSGNLIVVESVLMAVAFLAMLLVLGLCGAAYRPTEEIDLRSVGWGNIFQLPFKHVRDYRLRHLVPFFIYSGFEVLFACTGIALGYGVCSVGLERLAYLLVAYSLGASAASLLGLLGLWLPRPVPLVAGAGVRLLLTFILFFWAPVPRVLQHSWILYVAAALWGVGSALNKTGLSTLLGILYEDKERQDFIFTIYHWWQAVAIFTVYLGSSLHMKAKLAVLLVTLVAAAVSYLRMEQKLRRGVAPRQPRIPRPQHKVRGYRYLEEDNSDESDAEGEHGDGAEEEAPPAGPRPGPEPAGLGRRPCPYEQAQGGDGPEEQ", "note": "[H412R]", "effect of a mutation on the interaction": "disrupting interaction strength"}
    ]}
  ]
}
